Experiment [1] relates to CT26WT cells, a murine colon carcinoma cell line. The experiment is described as follows: CT26WT syngeneic mouse model, OX86 in combination with Oxaplatin/5-Fu. It is filed as in vivo. To be noted: OX86 0.08 mg/kg QW i.p.; Oxaplatin 1.5 mg/kg QW i.p.; 5-Fu 15 mg/kg once daily five days per week i.p. The method, then: Female BALB/c mice were subcutaneously implanted with 1×10^5 CT26WT cells, a murine colon carcinoma cell line, in 150 μL PBS in the right flank. After inoculation, the mice were randomized into 4 groups with 20 animals in each group. Mice were treated with vehicle as a control.
OX86 is a rat anti-mouse OX40 antibody previously disclosed in WO2016/057667, which was further engineered with mouse IgG2a constant regions in order to reduce its immunogenicity and also keep its Fc-mediated functions in mouse studies. The VH and VL regions of OX86 are provided below. […] As monotherapy, OX86 was administered at 0.08 mg/kg once per week (QW) by intraperitoneal (i.p.) injection.
Oxaplatin/5-Fluorouracil (5-Fu) was administered as a single agent to the mice. The OX86 antibody in combination with Oxaplatin/5-Fu was administered as combination therapy. OX86 (0.08 mg/kg) was administered once per week by intraperitoneal (i.p.) injection. Oxaplatin (1.5 mg/kg) was also dosed once per week (QW) intraperitoneally, and 5-Fu was given at 15 mg/kg once daily for five consecutive days per week by i.p. injection. […] Tumor volume was determined twice weekly in two dimensions by using a caliper and was expressed in mm^3 using the formula: V=0.5(a×b^2) where a and b are the long and short diameters of the tumor, respectively. […] Tumor growth inhibition (TGI) is calculated using the following formula: […]

In experiment [2] the target is T1, full-length human OX40 expressed on HuT78/OX40 cells (human, UniProt P43489 29-277).
T1 sequence: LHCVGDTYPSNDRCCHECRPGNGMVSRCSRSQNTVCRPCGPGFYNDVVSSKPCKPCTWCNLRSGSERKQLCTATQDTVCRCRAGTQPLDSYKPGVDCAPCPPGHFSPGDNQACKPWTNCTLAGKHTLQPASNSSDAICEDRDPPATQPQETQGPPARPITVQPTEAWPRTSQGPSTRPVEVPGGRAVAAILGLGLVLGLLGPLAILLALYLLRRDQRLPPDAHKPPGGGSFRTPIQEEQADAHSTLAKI
The experiment can be described thus: flow cytometry on live HuT78/OX40 cells; top of fitted curve. The procedure: To evaluate the binding activity of anti-OX40 antibodies to bind OX40 expressed on the surface of live cells, HuT78 cells were transfected with human OX40 as described in Example 1 to create an OX40 expressing line. Live HuT78/OX40 cells were seeded in 96-well plate and were incubated with a serial dilution of various anti-OX40 antibodies. Goat anti-Human IgG-FITC (Cat: A0556, Beyotime) was used as a secondary antibody to detect antibody binding to the cell surface. EC₅₀ values for dose-dependent binding to human OX40 were determined by fitting the dose-response data to the four-parameter logistic model with GraphPad Prism.

B1: OX86: rat anti-mouse OX40 antibody disclosed in WO2016/057667, engineered with mouse IgG2a constant regions; VH SEQ ID NO: 32, VL SEQ ID NO: 33 (antibody, V domains shown)
VH: QVQLKESGPGLVQPSQTLSLTCTVSGFSLTGYNLHWVRQPPGKGLEWMGRMRYDGDTYYNSVLKSRLSISRDTSKNQVFLKMNSLQTDDTAIYYCTRDGRGDSFDYWGQGVMVTVSS
VL: DIVMTQGALPNPVPSGESASITCRSSQSLVYKDGQTYLNWFLQRPGQSPQLLTYWMSTRASGVSDRFSGSGSGTYFTLKISRVRAEDAGVYYCQQVREYPFTFGSGTKLEIK
modifications: mouse IgG2a constant regions
Consider B1, for which, in experiment [1], the “Mean Tumor Volume on Day 11 (Mean ± SEM)” value is on record as 969.2 ± 229.0 mm^3 and the “TGI (%) on Day 11” value is reported as 48%.

B2: ch445 (antibody, V domains shown)
VH: EVQLQQSGPELVKPGASVKMSCKASGYKFTSYIIHWVKQKPGQGLEWIGYINPYNDGTRYNEKFKGKATLTSDKSSSTAYMEYSSLTSEDSAVYYCARGYYGSSYAMDYWGQGTSVTVSS
VL: DIQMTQTTSSLSASLGDRVTISCSASQGISNYLNWYQQKPDGTIKLLIYDTSTLYSGVPSRFSGSGSGTDYFLTISNLEPEDIATYYCQQYSKLPYTFGGGTKLEKK
In the case of B2, in experiment [2], the “Top (MFI), Mean” value worked out at 725 MFI.

B3: 445-2 (antibody, human IgG1, V domains shown)
VH: QVQLVQSGAEVKKPGSSVKVSCKASGYKFTSYIIHWVRQAPGQGLEWMGYINPYNEGTRYAQKFQGRVTLTADKSTSTAYMELSSLRSEDTAVYYCARGYYGSSYAMDYWGQGTTVTVSS
VL: DIQMTQSPSSLSASVGDRVTITCSASQGISNYLNWYQQKPGKAIKLLIYDASTLYSGVPSRFSGSGSGTDFTLTISSLQPEDFATYYCQQYSKLPYTFGGGTKVEIK
For B3, in experiment [2], the “Top (MFI), Mean” value came to 620 MFI.

B4: 445-3 IgG4 (antibody, V domains shown)
VH: QVQLVQSGAEVKKPGSSVKVSCKASGYKFTSYIIHWVRQAPGQGLEWMGYINPYNEGTRYNQKFQGRVTLTADKSTSTAYMELSSLRSEDTAVYYCARGYYGSSYAMDYWGQGTTVTVSS
VL: DIQMTQSPSSLSASVGDRVTITCRASQGISNYLNWYQQKPDGAIKLLIYDASTLYSGVPSRFSGSGSGTDFTLTISSLQPEDFATYYCQQYSKLPYTFGGGTKVEIK
Turning to B4, the “Top (MFI), Mean” value in experiment [2] was found to be 892 MFI.

B5: 445-1 (antibody, IgG1, V domains shown)
VH: QVQLVQSGAEVKKPGSSVKVSCKASGYKFTSYIIHWVRQAPGQGLEWMGYINPYNDGTRYNQKFQGRVTLTSDKSTSTAYMELSSLRSEDTAVYYCARGYYGSSYAMDYWGQGTTVTVSS
VL: DIQMTQSPSSLSASVGDRVTITCSASQGISNYLNWYQQKPGKAIKLLIYDTSTLYSGVPSRFSGSGSGTDYTLTISSLQPEDFATYYCQQYSKLPYTFGGGTKVEIK
notes: Full-length antibody with human wild-type IgG1 (IgG1wt) and kappa constant regions
In the case of B5, the “Top (MFI), Mean” value in experiment [2] was found to be 525 MFI.

B6: 445-3 (antibody, human IgG1, V domains shown)
VH: QVQLVQSGAEVKKPGSSVKVSCKASGYKFTSYIIHWVRQAPGQGLEWMGYINPYNEGTRYNQKFQGRVTLTADKSTSTAYMELSSLRSEDTAVYYCARGYYGSSYAMDYWGQGTTVTVSS
VL: DIQMTQSPSSLSASVGDRVTITCRASQGISNYLNWYQQKPDGAIKLLIYDASTLYSGVPSRFSGSGSGTDFTLTISSLQPEDFATYYCQQYSKLPYTFGGGTKVEIK
notes: Human IgG1 wild type format
B6: the “Top (MFI), Mean” value in experiment [2] turned out to be 910 MFI.

(Values after patent publication US20230002499A1, “METHODS OF CANCER TREATMENT WITH ANTI-OX40 ANTIBODY IN COMBINATION WITH CHEMOTHERAPEUTIC AGENTS” (BeiGene (Beijing) Co., Ltd., priority 2019, published 2023).)
